Test results taken from the DeepSol protein solubility set.

Assay: soluble on expression in E. coli; label from the status in PepcDB or PDB records

Sequence	soluble on expression in E. coli
GMNSDIIVADFWKNNEEILTDFDKDSFCESWTENEMWSIEFKVAQTPKNAHCYSFLDYESSVYFRGQEFVVKQLSHDAVGKTLSKDIRAPHIYYTCQDGRQDDAITGSFTLEQCLTHIFKTDNRGFSWEIIDPSNILEKVQQENFGNNNYLTLIDQLLDDYGVVVIPDNRHLVFKPREIYGAKTENFIRYKYNTDEASFDIDTLSLKTKIKGYGKVDSNGNNYFSPITYTSPEVEKWGIRWQEPVSDERYTVAGNMQRRLKLELQDYPATTGSVILKNDYECEKGDYVLFIYEPLGIDYDVQIVAYKKYPFTIKAPEITLSNNKKSIVSIMAQLAKVLKGAK	soluble
MAHHHHHHMEQRELEKLFAPYGQILSAAVMRNIHTGNSLGTAFVRYASTEEAMSAIKGMSGKRIGGRAIAVQWAKKQHDYAPVGEARKKISKLFVRNIPLDINTVVLEDMFSMYGPVKSVSIHKDTAPDCDKNFERHIAFITFLADGAAERAAEAVHNTRPFPSCGKVPLMVKLAEDAPQRIHHGTGSKNSANALRTKQQLQGDMSAMSSGQEQFFDAPAVQQCFPTGTGTGAMVVAPTSYFSLLASGGLILPGSLPGAVMGSEAPYPWRTRVTWPQGTGVPFPFYNGGAAATAANPLAPSNACATPPSGSPVSCMNNGGFTSFPMYTTPFCPSTSPGLSGTQADSVAGSPLILPSSLHQ	not soluble
MGSDKIHHHHHHMAVEKSTSIKNNSIKTVNVAVAVIHYQNQYLLGFRAASQHQGNRYEFVGGKIDAHETAKQALIREVAEETGINIANNTAVKLGRLHHDYGDKQVCLQVYRIEVTAQQYAQYKNLSCGLEGQKLTWVDKAKLLAGHYDLPAANKTILVWLQLPVQITITYPLAHFNGFPNPRAAWSQYHHEHIAADALVYMRIKVAGAEDSIERLLQLRSDIKAIAPDHLHTDKADNAVINRQIIAGHLTQTQLMQWSSSVAKESMSYSALSTNLPLIVSCHDADSINAANQLAFFRLQQQLPPVIGIFLAPVECTQTHPDTPPLGWEAWSKLAELADMPVIGLGGLSPVMSEQAMLHGGIAVAGIRQFLK	not soluble
MSLRAVIRVAFILMDNFSLMSFTAAMDALVTANLMGDAPIFDIVKIGLKGRVAMSDLGIAIPTDLDLSELRARHDLLLVVGGLRVDLKSTPCLRRKLFAAASAGTSLGGLWNGAYFLADARVMGGHTCAVHPDGRAMMADAFPDLRISDRSHVVDLERVTCAGASSSLRMMLEYIRVTKGSSLARAVEEILGCDEHEGHHHHHH	soluble
MNFRTGQPSDAAALAAISIEVWLGTYMRKGVSAFFAEYALNEFTSTKMASLLKDPNEHVIVSENEGGIDAFIRLGQGRAAPVSGCSTLEIATLYVQPRHHRRGLGRALLEQGLAYARQASAPSVWLTTNSENAPAIAFYLEQGFEKVGTTHFNIGDQ	not soluble
GPGSMPTRSHGDEEYYRQSRYKPVSIEDTPMFWKERADKCYGTQQWKAAANAYSESIKRDGAFLTCVMNRSACYLQMADYKRAIEDCSLALTMLANTPASEVTQERYRGLMTKLHARRGAAYCWADDLKSGAADLRMAAAYRDPTSDDDVAADLAMIEAQMKERGITEVDACVDPLSTRMQEAAAQYYQGSYEAAEATYSAILKEQPFHMKAQGNLAATLLRAGKFTQALQVCDGIVQFCSEAAAALEQPGGLAGDQLDSDDEEDEDEPDWAASSTESAPEEVEGASNKDTLVRQRRAAAKTLGEQSGHVYMLLKAYVRSAAALCGMKEYHKAHGYLERAMRITPYDNDLREDCNRLAEKIRMDTLITASAGSARTQKAAV	soluble
MVLDRQHLGVTKSRCIVWGVAFLSDGTVISVDSVGKVQLWDSATGTLVKSHLVANADVQSIAVADQEDSFVVGTAEGTVFHFQLVSMTSNSSEKQWVRTKPFQHHTHDVRAVAHSPTALISGGTDTHLVIRPLMERVEVKNYDAALRKITFPHRRLISCSKRRQLLLFQFAHHLELWRLGSTSATGKNGDTLPLSKNADHLLHLKTKGPENIICSCVSPCGSWIAYSTASRFFLYRLKYERDNISLQRVSKLPSFLRSALHILFSEDSTKLLVASNQGSLHIVHLSEGSFKHLHTFQPQSGTVEAMCLLAVSPDGNWLAASGTSAGVHVYDLHHLKLHCTVPAYNFPVTALAIAPNTNNLVIAHSDQQVFEFSIPEKQYTEWSRSLQKQGFHQLWLQRDTPITHISFHPKRPMHILLHDAYMFCIIDKSLPLPNEKTVLYNPLPPKNESDVFLRRTTHGFKMSKIYKPLLFMDLLDERTLVAVERPLDDIIAQLPPPIKKKKFGT	not soluble
MKPVFLDFEQPIAELTNKIDELRFVQDESAVDISDEIHRLQKKSNDLTKSIFSKLTPAQISQVSRHPQRPYTLDYIEALFTDFEELHGDRHFADDYAIVGGLARFNGQSVMVVGHQKGRDTKEKIRRNFGMPRPEGYRKALRLMKTAEKFGLPVMTFIDTPGAYPGIGAEERGQSEAIGKNLYELTRLRVPVLCTVIGEGGSGGALAVALGDYVNMLQYSTYSVISPEGCASILWKTAEKAADAAQALGITADRLQKLDLVDTVIKEPLGGAHRDFGQTMKNVKAVLEKQLHEAQSIPLADLLSRRFDRIMAYGKFSEQ	not soluble
MVSKAINSAMNQVDGIVVVGSPGRNLEIEDEKVTFIQSQISDVGKRYFIGLEKIDADYYFLLDYDDIFLSNKVNALKRVFENGKGGAAKESEYYNPSLNYISNVIRNRIDWHISEYSFDADFKKYLLKFVEKYSIPTHVSFDKILFAIMLNYGNMHVVNSKLTEIVSHGDSRMHAKRKRKFYSETYKVFEKFKSIPDLNQSCRQYVEYTYDLNRYLSEPTRENYEHLLASGKYPIPLYKRLYYKYYSIMKPE	not soluble
MVRYFGFLANRVCGEKLPQVYRALGMDKPEPVAKVCYAQMVKQFLSRDPFECVLCGGRMVYRRAIAGLNVEGLKKNARDISLLRYMPA	not soluble
MGSDKIHHHHHHARRNVLRKTWMNPENSEIIKDGRMKALFLVGMTDGDDSRMRKVVMEEARIYGDMVVVDLKDTYEELPFKSLTTLLYGTSKASEFKLIGKIDEDIMFFPDKILPLLEQNLIDPSSESIYGMLFAEGGYVYRDKEHRWFVPDSTYGCDMFPPYTGGLFYLVTQDAAKKILNATKHRIFIPIEDALINGILANDCKIPRIHLPEIYGDHHSLTDEDTRGVLAWHTGKNDQQFLDYFYRKLSESRLKKKILDEKNKHLFY	not soluble
MTKRGPDDLQLSLRNGVGGASTTAPGVAAAAYYANVMTADSEPKKAKLDPTLYSSQFYTPAMHHGLMTADASTVAAVTAAANATTAQLLTGNPITQIQGIQLSTLPQCNSTSAVTSIPVSKVVHVRNIPPDLVDVELMQLCIQYGPVSNYMMLKGKSQAFVEYEEEASAAAFVSGMTAVPIQIRGRTLFAQYSTHRELKFDKNKAISDTESVANGSVSNFEVGTQQQPNSVLRTIIENMMFPVSLDVLYQLFTRYGKVLRIITFNKNNTFQALVQMSEANSAQLAKQGLENQNVYNGCCTLRIDYSKLSTLNVKYNNDKSRDYTNPNLPAGEMTLEQTIAMSIPGLQNLIPANPYNFAFGANPATTFLTTQLAASTAAAAAVNDSANAAALAPYLNPLGLTSANLAPSISSMRFPMINLTPVILVSNLHEMKVTTDALFTLFGVYGDVMRVKILYNKKDNALIQYSEPQQAQLALTHLDKVKWHDRLIRVAPSKHTNVQMPKEGQPDAGLTRDYAHSTLHRFKKPGSKNYLNIYPPCATLHLSNIPTSVSEEKLKEMFAEAGFAVKAFKFFPKDHKMALCQLEDIETAIDALIAMHNHKLAENAHLRVSFSKSGI	not soluble
MFLKRIELQREKVLSFQEYPFSIPAIKHFQRLELKSRVTFFVGENGSGKSTLLEAIADKCEFNTAGGGRNNYYEVDASESALGDYIRLSWLPKVSNGFFLRAESFYHFASHVDEVDARHAYGGRSLHHQSHGEAFLSLFANRFNRKGIYLLDEPEAALSPRRQLSFLAILHDLVSSGDSQFIIATHSPILLGYPHATILSFDHGTIEETTYEQTEHYQLTRYFLENRERMLRELLGELEHHHHHH	not soluble
MTIPLPGLEVRGSKTGKPIMALLDLLGRTWSLGIIWNLHSGPATFRELQQRCEKISPTLLNTRLKELKTLQLVECQEAGYQLTHQGLDLFDIISPLGSWSSQWAQGLKEDSK	not soluble
MGSDKIHHHHHHMANDWLELRQHADTGIETIKAHFEGHAYDPHWHDSYLVGLTLSGTQQFHCRRERHRSRPGDAFLLEPGEIHDGDAPVDGGFTYLTFYLDEQWLTNALHGLYESTPGSYSLHFAQTLTREPQLVRSISDSFTTLHNDEMKIVQQSSMDKLLSQITAHCHWRKRLPSQLQSTAVAHRARDYLYAHMGENIGLSDLARETGTDRFTLTRCFKREFHLAPHAWFIQLRLAKARQLLAYGDQPADVAAALGFSDQSHLGRWFQRAYRISPAHYRRLCTNLPDVSRR	not soluble
SKKVYAFDVQEQALGKTSQRLSDLGIENTELILDGHENLDHYVREPIRAAIFNLGYLPSADKSVITKPHTTLEAIEKILDRLEVGGRLAIMIYYGHDGGDMEKDAVLEYVIGLDQRVFTAMLYQPLNQINTPPFLVMLEKLQ	not soluble
QDPDGLLGDKKDVGITCALIPADHDGVEIGERHDPLGSAFMNGPTRGEDVFIPMDWLIGGSDYAGKGWRMLVECLSAGRGISLPALGTAIGHLTTRTTGAYAYVRKQFGMSIGKFEGVAEAMGRIGGLTYLLEATRTLTTTSLDMKEKPGIVTAIAKYHMTEIARTILNDSFDIHAGRAIQDGPMNYLAKHYLGIPVAITVEGANILTRNLMIFGQGATRCHPYVLKEMEAAANPDSEQGAKEFDSLLFKH	not soluble
QVQLQQPGSVLVRPGASVKLSCKASGFTFTSSWMHWAKQRPGQGLEWIGEIHPNSGNTHYNEKFKGKATLTVDTSSSTAYVDLSSLTSEDSAVYYCARMRYGDYYAMDNWGQGTSVTVSSAKTTAPPVYPLAPVCGDTTGSSVTLGCLVKGYFPESVTLLWNSGSLSSGVHTFPAVLQSDLYTLSSSVTVTSSTWPSQSITCNVAHPASSTKVDKKIEPRG	soluble
MAREATIARTTNETSIQLSLSLDGEGKAELETGVPFLTHMLDLFAKHGQFDLYIEAKGDTHIDDHHTTEDIGICLGQAIKEALGDKKGIKRYGNAFVPMDDALAQVVIDLSNRPHFEFRGEFPATKVGAFDVELVHEFLWKLALEARMNLHVIVHYGRNTHHMIEAVFKALGRALDEATMIDPRVKGVPSTKGML	not soluble
GSMETSMPEYYEVFGEFRGVLMDKRFTKYWEDVEMFLARPDDLVIATYPKSGTTWISEVVYMIYKEGDVEKCKEDAIFNRIPYLECRNEDLINGIKQLKEKESPRIVKTHLPPKLLPASFWEKNCKMIYLCRNAKDVAVSYYYFLLMITSYPNPKSFSEFVEKFMQGQVPYGSWYDHVKAWWEKSKNSRVLFMFYEDMKEDIRREVVKLIEFLERKPSAELVDRIIQHTSFQEMKNNPSTNYTMMPEEMMNQKVSPFMRKGIIGDWKNHFPEALRERFDEHYKQQMKDCTVKFRMEL	soluble
MQVSVTGDFVGHIQELIRTEVLPYQWEALNDQIAGAEPSHCLDNFRAAAEKKGHIQFHGQPFQDSDIYKWIEAAAYTLAWHPDSDLEAKADQAIELICGAQQPDGYLNTYFILTGAQRWTHLLDGHELYCAGHLMEAAVAYYHATGKDKLLKAAQKLADHIADVFGTSPGKIPGYPGHPEVELALIRLFEATGNIKYQQLAQYFICQRGASPSIFRKEADQFGWDWADSPFQFQFYQAGKPILEQTELEGHAVRALYLCCGIADVAARTQDAALLETCRRLWEDLTQTKLYITGGAGSSVYGEAFTFAYDLPNDTAYAETCAAVAVCFFAQRMMKISPSGAYGDVLEQALYNGVLSGMALDGKSFFYVNPLEVVPEACQKDQRKKHVKPIRQKWFACACCPPNLARLFASIGGYLHFIRAETLYTNLYVTSTSEFTFQGLPIKLHMDSAYPFDEKIHISLSLPRPMEFSYAVRIPAWCADYHVLINGKICAGTLKDGFLYLHRCWRDGDEVELTLSMPVRVVRANSLVRENIGKSAICRGPIVYCMEQLEHHHHHH	not soluble
